Experimental data published in patent publication US20190092850A1 (NUMAB INNOVATION, published 2019).
Changes are numbered by the printed parent chain.

How the values were obtained:
recombinant human TNFα [1] = biological target: T1, recombinant human TNFα (human, UniProt P01375 77-233); test: cell-based or functional assay
[2] = biological target: recombinant Cynomolgus monkey TNFα (Cynomolgus monkey (Macaca fascicularis), UniProt P79337 77-233); test: cell-based or functional assay
Rhesus monkey TNFα = Rhesus monkey TNFα (Rhesus monkey (Macaca mulatta), UniProt P48094 77-233); test: cell-based or functional assay
Rhesus monkey TNFα, sequence (P48094 77-233 limits assumed): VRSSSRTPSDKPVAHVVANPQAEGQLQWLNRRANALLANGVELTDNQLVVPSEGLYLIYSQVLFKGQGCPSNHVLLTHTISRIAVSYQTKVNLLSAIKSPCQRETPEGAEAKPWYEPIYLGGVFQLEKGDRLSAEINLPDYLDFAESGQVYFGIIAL

recombinant human TNFα [3] = biological target: T1, recombinant human TNFα; test: SPR (MASS-1), human TNFα immobilised, scFv injected; screening with 90 nM of scFv
Protocol: (§1) In a second step, for the best performing scFvs, Single Injection Cycle Kinetics (SiCK) were measured from a single injection cycle by simultaneously injecting six analyte samples at different concentrations into each of the eight parallel channels in the MASS-1 system. […] The apparent dissociation (kd) and association (kₐ) rate constants and the apparent dissociation equilibrium constant (KD) were calculated with the MASS-1 analysis software (Analyzer, Sierra Sensors) using one-to-one Langmuir binding model and quality of the fits was monitored based on Chi², which is a measure for the quality of the curve fitting. The smaller the value for the Chi² the more accurate is the fitting to the one-to-one Langmuir binding model. For affinity screenings, results were deemed valid if the Chi² was below 10 for the concentration analyzed. In cases where several scFv concentrations were analyzed, results were deemed valid if the average Chi² over all the concentrations tested was below 10.

recombinant human TNFα [4] = biological target: T1, recombinant human TNFα; test: SPR (MASS-1), human TNFα immobilised, two-fold serial dilutions of scFv injected
Protocol: Affinity was determined using 2-fold serial dilutions of the respective scFvs.
as §1

T1 sequence (P01375 77-233 limits assumed): as the sequence (P48094 77-233 limits assumed) above, with T44R, N72T, L138R counted along it
recombinant Cynomolgus monkey TNFα, sequence (P79337 77-233 limits assumed): as the sequence (P48094 77-233 limits assumed) above, with L37V counted along it

B1: humanized scFv 16-19-B11-sc01 (CDR graft) (scFv)
scFv: MDIQMTQSPSSLSASVGDRVTITCQASESISSWLAWYQQKPGKAPKLLIYKASTLASGVPSRFSGSGSGTDFTLTISSLQPEDFATYYCQGYYLDSSVDDNVFGGGTKLTVLGGGGGSGGGGSGGGGSGGGGSEVQLVESGGGLVQPGGSLRLSCAASGIDFSTYGISWVRQAPGKGLEWIGYIYPDYGITDYASWVNGRFTISRDNSKNTVYLQMNSLRAEDTAVYYCARSGSYYSRGWGAHYFNLWGQGTLVTVSS
B1 was tested, and the “Neutralization of TNF in L929 assay, rel. IC50 (IC50, Infliximab (ng/ml)/IC50, scFv (ng/ml))” value (recombinant human TNFα [1]) was 0.6 ratio, the “Neutralization of TNF in L929 assay, rel. IC90 (IC90, Infliximab (ng/ml)/IC90, scFv (ng/ml))” value (recombinant human TNFα [1]) was 0.2 ratio and the “Species specificity in L929 assay IC50 (ng/ml), human” value (“Species specificity … human” for short) (recombinant human TNFα [1]) was 12.1 ng/mL. For the same binder, the “Species specificity in L929 assay IC50 (ng/ml), cyno” value [2] was 92.1 ng/mL, the “Species specificity in L929 assay IC50 (ng/ml), rhesus” value (Rhesus monkey TNFα) was 59.7 ng/mL and the Kd (recombinant human TNFα [3]) was 0.7 nM. The koff (recombinant human TNFα [3]) was 0.00048 s⁻¹ and the kon (recombinant human TNFα [3]) was 680000 M⁻¹ s⁻¹.

B2: humanized scFv 16-19-B11-sc06 (structural graft) (scFv)
scFv: B1 scFv with T23N, A44R, F72Y, G182A, R205L, S208A, K209Q
In the case of B2, the “Neutralization of TNF in L929 assay, rel. IC50 (IC50, Infliximab (ng/ml)/IC50, scFv (ng/ml))” value (recombinant human TNFα [1]) is reported as 16.2 ratio, the “Neutralization of TNF in L929 assay, rel. IC90 (IC90, Infliximab (ng/ml)/IC90, scFv (ng/ml))” value (recombinant human TNFα [1]) is reported as 15 ratio and the “Species specificity … human” value (recombinant human TNFα [1]) is reported as 0.4 ng/mL. The “Species specificity in L929 assay IC50 (ng/ml), cyno” value [2] was 1.8 ng/mL, the “Species specificity in L929 assay IC50 (ng/ml), rhesus” value (Rhesus monkey TNFα) was 1 ng/mL and the Kd (recombinant human TNFα [4]) was 0.059 nM. For the same binder, the koff (recombinant human TNFα [4]) was 5.8e-05 s⁻¹ and the kon (recombinant human TNFα [4]) was 970000 M⁻¹ s⁻¹.

B3: humanized scFv 16-19-B11-sc02 (structural graft) (scFv)
scFv: B1 scFv with T23N, D71E, S78G, E82A, A156K, G182A, R205L
B3 was tested, and the “Neutralization of TNF in L929 assay, rel. IC50 (IC50, Infliximab (ng/ml)/IC50, scFv (ng/ml))” value (recombinant human TNFα [1]) was 94 ratio, the “Neutralization of TNF in L929 assay, rel. IC90 (IC90, Infliximab (ng/ml)/IC90, scFv (ng/ml))” value (recombinant human TNFα [1]) was 4.5 ratio and the “Species specificity … human” value (recombinant human TNFα [1]) was 0.8 ng/mL. It also gave a Kd (recombinant human TNFα [3]) of 0.22 nM, a koff (recombinant human TNFα [3]) of 0.00016 s⁻¹ and a kon (recombinant human TNFα [3]) of 730000 M⁻¹ s⁻¹.
